# Results: patent US20140348819A1, “Methods of Treating Cancer” (Dana-Farber Cancer Institute, Inc., priority 2011, published 2014)
# B1: Angiopoietin-1 (protein, UniProt Q15389 16-498, looked up)
# Angiopoietin-1: HIGCSNQRRSPENSGRRYNRIQHGQCAYTFILPEHDGNCRESTTDQYNTNALQRDAPHVEPDFSSQKLQHLEHVMENYTQWLQKLENYIVENMKSEMAQIQQNAVQNHTATMLEIGTSLLSQTAEQTRKLTDVETQVLNQTSRLEIQLLENSLSTYKLEKQLLQQTNEILKIHEKNSLLEHKILEMEGKHKEELDTLKEEKENLQGLVTRQTYIIQELEKQLNRATTNNSVLQKQQLELMDTVHNLVNLCTKEGVLLKGGKREEEKPFRDCADVYQAGFNKSGIYTIYINNMPEPKKVFCNMDVNGGGWTVIQHREDGSLDFQRGWKEYKMGFGNPSGEYWLGNEFIFAITSQRQYMLRIELMDWEGNRAYSQYDRFHIGNEKQNYRLYLKGHTGTAGKQSSLILHGADFSTKDADNDNCMCKCALMLTGGWWFDACGPSNLNGMFYTAGQNHGKLNGIKWHYFKGPSYSLRSTTMMIRPLDF
# Test system: six V600E BRAF melanoma cell lines
# Assay: Screening of recombinant RTK ligands for ability to confer resistance to BRAFi (PLX4720) or MEKi (PD184352) (Table 4)
# Assay type: cell-based, human
# Set-up: ability of recombinant RTK ligand to confer resistance / ability of recombinant RTK ligand to confer resistance (screening value): scale not given here
# Protocol: HGF is the only one that can substantially confer drug resistance to the cell lines.
# The complexity of the tumor microenvironment is much greater than an in vitro co-culture system. Therefore, the inventors explored whether the activation of other RTKs could result in a similar resistance as that observed with the activation of MET. To this end, six V600E BRAF melanoma cell lines were tested for their resistance to either BRAFi (PLX4720) or MEKi (PD184352) after the addition of 22 RTK ligands that have the potential of activating almost all known RTKs. […] The activation of a selected subset of these RTKs was confirmed by western blotting and by high throughput tyrosine kinase phosphorylation profiling.
molecule,measurement,setting,value
B1,ability of recombinant RTK ligand to confer resistance,"A2058, PD184352 - 1 uM, ligand 1.56 ng/ml",1.02
same,ability of recombinant RTK ligand to confer resistance,"A2058, PD184352 - 1 uM, ligand 6.25 ng/ml",1.03
same,ability of recombinant RTK ligand to confer resistance,"A2058, PD184352 - 1 uM, ligand 25 ng/ml",0.96
same,ability of recombinant RTK ligand to confer resistance,"A2058, PD184352 - 1 uM, ligand 100 ng/ml",0.99
same,ability of recombinant RTK ligand to confer resistance,"A2058, PD184352 - 1 uM, ligand 400 ng/ml",0.90
same,ability of recombinant RTK ligand to confer resistance,"A2058, PLX4720 - 2 uM, ligand 1.56 ng/ml",1.02
same,ability of recombinant RTK ligand to confer resistance,"A2058, PLX4720 - 2 uM, ligand 6.25 ng/ml",1.02
same,ability of recombinant RTK ligand to confer resistance,"A2058, PLX4720 - 2 uM, ligand 25 ng/ml",0.91
same,ability of recombinant RTK ligand to confer resistance,"A2058, PLX4720 - 2 uM, ligand 100 ng/ml",0.97
same,ability of recombinant RTK ligand to confer resistance,"A2058, PLX4720 - 2 uM, ligand 400 ng/ml",0.96
same,ability of recombinant RTK ligand to confer resistance,"C32, PD184352 - 1 uM, ligand 1.56 ng/ml",1.08
same,ability of recombinant RTK ligand to confer resistance,"C32, PD184352 - 1 uM, ligand 6.25 ng/ml",1.07
same,ability of recombinant RTK ligand to confer resistance,"C32, PD184352 - 1 uM, ligand 25 ng/ml",1.02
same,ability of recombinant RTK ligand to confer resistance,"C32, PD184352 - 1 uM, ligand 100 ng/ml",1.07
same,ability of recombinant RTK ligand to confer resistance,"C32, PD184352 - 1 uM, ligand 400 ng/ml",0.98
same,ability of recombinant RTK ligand to confer resistance,"C32, PLX4720 - 2 uM, ligand 1.56 ng/ml",1.20
same,ability of recombinant RTK ligand to confer resistance,"C32, PLX4720 - 2 uM, ligand 6.25 ng/ml",1.09
same,ability of recombinant RTK ligand to confer resistance,"C32, PLX4720 - 2 uM, ligand 25 ng/ml",1.14
same,ability of recombinant RTK ligand to confer resistance,"C32, PLX4720 - 2 uM, ligand 100 ng/ml",1.08
same,ability of recombinant RTK ligand to confer resistance,"C32, PLX4720 - 2 uM, ligand 400 ng/ml",0.99
same,ability of recombinant RTK ligand to confer resistance,"Colo 829, PD184352 - 1 uM, ligand 1.56 ng/ml",0.94
same,ability of recombinant RTK ligand to confer resistance,"Colo 829, PD184352 - 1 uM, ligand 6.25 ng/ml",0.97
same,ability of recombinant RTK ligand to confer resistance,"Colo 829, PD184352 - 1 uM, ligand 25 ng/ml",0.97
same,ability of recombinant RTK ligand to confer resistance,"Colo 829, PD184352 - 1 uM, ligand 100 ng/ml",0.93
same,ability of recombinant RTK ligand to confer resistance,"Colo 829, PD184352 - 1 uM, ligand 400 ng/ml",0.97
same,ability of recombinant RTK ligand to confer resistance,"Colo 829, PLX4720 - 2 uM, ligand 1.56 ng/ml",0.93
same,ability of recombinant RTK ligand to confer resistance,"Colo 829, PLX4720 - 2 uM, ligand 6.25 ng/ml",0.97
same,ability of recombinant RTK ligand to confer resistance,"Colo 829, PLX4720 - 2 uM, ligand 25 ng/ml",0.95
same,ability of recombinant RTK ligand to confer resistance,"Colo 829, PLX4720 - 2 uM, ligand 100 ng/ml",0.94
same,ability of recombinant RTK ligand to confer resistance,"Colo 829, PLX4720 - 2 uM, ligand 400 ng/ml",1.05
same,ability of recombinant RTK ligand to confer resistance,"G-361, PD184352 - 1 uM, ligand 1.56 ng/ml",0.98
same,ability of recombinant RTK ligand to confer resistance,"G-361, PD184352 - 1 uM, ligand 6.25 ng/ml",0.96
same,ability of recombinant RTK ligand to confer resistance,"G-361, PD184352 - 1 uM, ligand 25 ng/ml",0.92
same,ability of recombinant RTK ligand to confer resistance,"G-361, PD184352 - 1 uM, ligand 100 ng/ml",0.95
same,ability of recombinant RTK ligand to confer resistance,"G-361, PD184352 - 1 uM, ligand 400 ng/ml",0.75
same,ability of recombinant RTK ligand to confer resistance,"G-361, PLX4720 - 2 uM, ligand 1.56 ng/ml",1.02
same,ability of recombinant RTK ligand to confer resistance,"G-361, PLX4720 - 2 uM, ligand 6.25 ng/ml",0.96
same,ability of recombinant RTK ligand to confer resistance,"G-361, PLX4720 - 2 uM, ligand 25 ng/ml",0.97
same,ability of recombinant RTK ligand to confer resistance,"G-361, PLX4720 - 2 uM, ligand 100 ng/ml",0.83
same,ability of recombinant RTK ligand to confer resistance,"G-361, PLX4720 - 2 uM, ligand 400 ng/ml",0.84
same,ability of recombinant RTK ligand to confer resistance,"SK-MEL-5, PD184352 - 1 uM, ligand 1.56 ng/ml",1.03
same,ability of recombinant RTK ligand to confer resistance,"SK-MEL-5, PD184352 - 1 uM, ligand 6.25 ng/ml",0.93
same,ability of recombinant RTK ligand to confer resistance,"SK-MEL-5, PD184352 - 1 uM, ligand 25 ng/ml",0.95
same,ability of recombinant RTK ligand to confer resistance,"SK-MEL-5, PD184352 - 1 uM, ligand 100 ng/ml",0.92
same,ability of recombinant RTK ligand to confer resistance,"SK-MEL-5, PD184352 - 1 uM, ligand 400 ng/ml",0.87
same,ability of recombinant RTK ligand to confer resistance,"SK-MEL-5, PLX4720 - 2 uM, ligand 1.56 ng/ml",1.05
same,ability of recombinant RTK ligand to confer resistance,"SK-MEL-5, PLX4720 - 2 uM, ligand 6.25 ng/ml",1.02
same,ability of recombinant RTK ligand to confer resistance,"SK-MEL-5, PLX4720 - 2 uM, ligand 25 ng/ml",0.98
same,ability of recombinant RTK ligand to confer resistance,"SK-MEL-5, PLX4720 - 2 uM, ligand 100 ng/ml",1.03
same,ability of recombinant RTK ligand to confer resistance,"SK-MEL-5, PLX4720 - 2 uM, ligand 400 ng/ml",1.04
same,ability of recombinant RTK ligand to confer resistance,"SK-MEL-28, PD184352 - 1 uM, ligand 1.56 ng/ml",1.09
same,ability of recombinant RTK ligand to confer resistance,"SK-MEL-28, PD184352 - 1 uM, ligand 6.25 ng/ml",1.04
same,ability of recombinant RTK ligand to confer resistance,"SK-MEL-28, PD184352 - 1 uM, ligand 25 ng/ml",1.12
same,ability of recombinant RTK ligand to confer resistance,"SK-MEL-28, PD184352 - 1 uM, ligand 100 ng/ml",0.98
same,ability of recombinant RTK ligand to confer resistance,"SK-MEL-28, PD184352 - 1 uM, ligand 400 ng/ml",0.96
same,ability of recombinant RTK ligand to confer resistance,"SK-MEL-28, PLX4720 - 2 uM, ligand 1.56 ng/ml",1.05
same,ability of recombinant RTK ligand to confer resistance,"SK-MEL-28, PLX4720 - 2 uM, ligand 6.25 ng/ml",0.96
same,ability of recombinant RTK ligand to confer resistance,"SK-MEL-28, PLX4720 - 2 uM, ligand 25 ng/ml",1.02
same,ability of recombinant RTK ligand to confer resistance,"SK-MEL-28, PLX4720 - 2 uM, ligand 100 ng/ml",0.96
same,ability of recombinant RTK ligand to confer resistance,"SK-MEL-28, PLX4720 - 2 uM, ligand 400 ng/ml",0.99
